According to patent US20060115837A1 (WASHINGTON UNIVERSITY, published 2006):

T1: West Nile Virus envelope protein on WNV virions (West Nile Virus, UniProt Q9Q6P4 291-791)
T1 sequence: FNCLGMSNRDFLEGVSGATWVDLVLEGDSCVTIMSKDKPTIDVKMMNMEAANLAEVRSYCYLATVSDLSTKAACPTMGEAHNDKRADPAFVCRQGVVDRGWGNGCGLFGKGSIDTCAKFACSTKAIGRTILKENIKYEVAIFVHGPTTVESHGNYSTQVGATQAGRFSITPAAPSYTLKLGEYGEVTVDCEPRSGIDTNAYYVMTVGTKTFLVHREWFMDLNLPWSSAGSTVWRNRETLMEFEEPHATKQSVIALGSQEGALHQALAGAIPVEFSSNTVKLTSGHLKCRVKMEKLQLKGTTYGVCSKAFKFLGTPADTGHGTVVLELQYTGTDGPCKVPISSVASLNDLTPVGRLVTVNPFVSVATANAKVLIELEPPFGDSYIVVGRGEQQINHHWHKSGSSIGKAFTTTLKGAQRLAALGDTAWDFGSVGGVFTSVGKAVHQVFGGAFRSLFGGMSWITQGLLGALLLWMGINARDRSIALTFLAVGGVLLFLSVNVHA


Columns and labels:
[1] = target: West Nile Virus envelope protein on WNV virions (West Nile Virus) (UniProt Q9Q6P4); assay: cell-based or functional assay
[2] = target: T1, West Nile Virus envelope protein on WNV …; assay: cell-based or functional assay

Row | Molecule | blockade of cellular attachment of WNV to Vero cells (cell-associated viral RNA by fluorogenic RT-PCR), fold reduction [1] [fold] | blockade of cellular attachment of WNV to Vero cells (cell-associated viral RNA by fluorogenic RT-PCR), fold reduction [2] [fold]
1 | monoclonal antibody E60 | 8 to 9 | –
2 | monoclonal antibody E16 (antibody, V domains shown) VH: QVQLQQSGSELMKPGASVQISCKATGYTFSDYWIEWVKQRPGHGLEWIGILCGTGRTRYNEKLKAMATFTADTSSNTAFMQLSSLTSEDSAVYYCARSASYGDYADYWGHGTTLTVSS VL: DIVMTQSHKFMSTSVGDRVSITCKASQDVSTAVAWYQQKPGQSPKLLISWASTRHTGVPDRFTGSGSGTDYTLTISSVQAEDLALYYCQQHYTTPLTFGAGTKLELK | – | 3.5
